Two substances from article doi:10.1101/284836 can be followed below.

Series [1] deals with HiCRP-HIS (Haemophilus influenzae). The series is described as follows: EMSA. A general note: In EMSA bound probe runs differently from free probe, usually more slowly.
Series [2] relates to EcCRP-HIS (Escherichia coli). The series is described as follows: EMSA.

As to pilA-N promoter (CRP-N), Fig. 3 bait, the binding signal in series [1] was determined as 6 % shifted; in series [2], 77 % shifted. For pilA promoter (CRP-S), Fig. 3 bait, in series [2], the binding signal is 30 % shifted.
